For two proteins, Km results are on record in article PMC11579514, “Validation of NBD-coupled taurocholic acid for intravital analysis of bile acid transport in liver and kidney of mice” (EXCLI Journal, 2024).

As usually defined, the Km is the substrate concentration at which the rate is half of its maximum.

Substrate in data set [1]: C[C@H](CCC(=O)NCCS(=O)(=O)O)[C@H]1CC[C@H]2[C@@H]3[C@H](O)C[C@@H]4C[C@@H](Nc5ccc([N+](=O)[O-])c6nonc56)CC[C@]4(C)[C@H]3C[C@H](O)[C@]12C
Kind of data set: sodium-dependent fluorescent uptake kinetics (Km) in mAsbt-HEK cells. The class given is cell-based, Mus musculus. The conditions noted are these: Na+.

Substrate in data set [2]: C[C@H](CCC(=O)NCCS(=O)(=O)O)[C@H]1CC[C@H]2[C@@H]3[C@H](O)C[C@@H]4C[C@@H](Nc5ccc([N+](=O)[O-])c6nonc56)CC[C@]4(C)[C@H]3C[C@H](O)[C@]12C
The experiment in a line: sodium-dependent fluorescent uptake kinetics (Km) in mNtcp-HEK cells. As to conditions: Na+. It counts as cell-based, Mus musculus.

B1: mAsbt (mouse apical sodium-dependent bile acid transporter) (Mus musculus) (protein)
chain: MDNSSVCPPNATVCEGDSCVVPESNFNAILNTVMSTVLTILLAMVMFSMGCNVEVHKFLGHIKRPWGIFVGFLCQFGIMPLTGFILSVASGILPVQAVVVLIMGCCPGGTGSNILAYWIDGDMDLSVSMTTCSTLLALGMMPLCLFVYTKMWVDSGTIVIPYDSIGISLVALVIPVSFGMFVNHKWPQKAKIILKIGSITGVILIVLIAVIGGILYQSAWIIEPKLWIIGTIFPIAGYSLGFFLARLAGQPWYRCRTVALETGMQNTQLCSTIVQLSFSPEDLNLVFTFPLIYTVFQLVFAAVILGIYVTYRKCYGKNDAEFLEKTDNEMDSRPSFDETNKGFQPDEK
notes: full open reading frame with C-terminal FLAG, stably expressed in HEK293
Consider B1, for which the Michaelis constant (Km) in data set [1] is 19.1 µM.

B2: mNtcp (mouse Na+/taurocholate co-transporting polypeptide) (Mus musculus) (protein)
chain: MEAHNVSAPFNFSLPPGFGHRATDTALSVILVVMLLLIMLSLGCTMEFSKIKAHFWKPKGVIIAIVAQYGIMPLSAFLLGKVFHLTSIEALAILICGCSPGGNLSNLFTLAMKGDMNLSIVMTTCSSFTALGMMPLLLYIYSKGIYDGDLKDKVPYKGIMLSLVMVLIPCAIGIFLKSKRPHYVPYVLKAGMIITFSLSVAVTVLSVINVGNSIMFVMTPHLLATSSLMPFTGFLMGYILSALFRLNPSCRRTISMETGFQNVQLCSTILNVTFPPEVIGPLFFFPLLYMIFQLAEGLLFIIIFRCYLKIKPQKDQTKITYKAAATEDATPAALEKGTHNGNNPPTQPGLSPNGLNSGQMAN
notes: as for B1
Take B2: the Km in data set [2] came out at 23.3 µM.
